± gives the uncertainty stated by the source.

This series is described as follows: self-splicing fitness, log relative to wild type (ln ratio); higher = more splicing; Tetrahymena group I intron in knt gene, E. coli kanamycin selection, DiMSum; sequences stand for … in CUCUCU…GGAGGGAAAAGUUAUCAGGCAUGCACCUGGUAGCUAGUCUUUAAACCAAUAGAUUGCAUCGGUUUAAAAGGCAAGACCGUCAAAUUGCGGGAAAGGGGUCAACAGCCGUUCAGUACCAAGUCUCAGGGGAAACUUUGAGAUGGCCUUGCAAAGGGUAUGGUAAUAAGCUGACGGACAUGGUCCUAACCACGCAGCCAAGUCCUAAGUCAACAGAUCUUCUGUUGAUAUGGAUGCAGUUCACAGACUAAAUGUCGGUCGGGGAAGAUGUAUUCUUCUCAUAAGAUAUAGUCGGACCUCUCCUUAAUGGGAGCUAGCGGAUGAAGUGAUGCAACACUGGAGCCGCUGGGAACUAAUUUGUAUGCGAAAGUAUAUUGAUUAGUUUUGGAGUACUCGUGGUCG
An outline of the steps: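 Pooled colonies went to amplicon sequencing on an Illumina HiSeq 2500 after six replicate transformations. The plates were LB agar with 100 μg/mL carbenicillin, 50 μM IPTG and 0.2% rhamnose, with or without 25 μg/mL kanamycin, incubated overnight at 37°C or 30°C. The E. coli BL21(DE3) library had all eight P1ex-region intron nucleotides randomised, the intron placed in the knt kanamycin-resistance gene on pET-22b(+). DiMSum fitness is the error-weighted combination of replicate fold changes, kanamycin against none, normalised to wild type.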

For the sequence AUCGAGCAAUAUUACGUCGG, the “self-splicing fitness (ln)” value by setting is: (30 °C) -2 ± 0.13; (37 °C) -1.42 ± 0.16.
For AUCGAGCAAUAUUACGUCGU the same measures were -2.19 ± 0.13 and -1.2 ± 0.14.
On to AUCGAGCAAUAUUACGUGCU, for which the “self-splicing fitness (ln)” value was -2.72 ± 0.2 (30 °C) and -2 ± 0.27 (37 °C).
With AUCGAGCAAUAUUACGUGUG, the “self-splicing fitness (ln)” value is -3.04 ± 0.13 (30 °C) and -2.92 ± 0.18 (37 °C).
In the case of AUCGAGCAAUAUUACGUUUC, the “self-splicing fitness (ln)” value (37 °C) is -2.81 ± 0.31.
Still for that read-out and setting: in the case of AUCUAGCAAUAUUACGAAAA it was -2.38 ± 0.33; in that of AUCUAGCAAUAUUACGAAAC, -1.96 ± 0.49.
As for AUCUAGCAAUAUUACGACAU, the “self-splicing fitness (ln)” value (30 °C) worked out at 0.0957 ± 0.013 and the “self-splicing fitness (ln)” value (37 °C) was determined as 0.273 ± 0.032.
In the same order, the values of AUCUAGCAAUAUUACGAUAC are -3.21 ± 0.35 and -2.27 ± 0.29.
As for AUCUAGCAAUAUUACGAUCU, the “self-splicing fitness (ln)” value runs as follows: (30 °C) -1.03 ± 0.13; (37 °C) 0.148 ± 0.15.
In the same order, the values of AUCUAGCAAUAUUACGCAGG are -2.97 ± 0.3 and -1.07 ± 0.18.
For AUCUAGCAAUAUUACGCGCG the same measures were -0.762 ± 0.095 and -0.257 ± 0.12.
Consider AUCUAGCAAUAUUACGCGGA, for which the “self-splicing fitness (ln)” value is -1.69 ± 0.26 (30 °C) and -2.53 ± 0.23 (37 °C).
In the same order, the values of AUCUAGCAAUAUUACGCGGC are -3.15 ± 0.38 and -2.92 ± 0.33.
Consider AUCUAGCAAUAUUACGCUAG, for which the “self-splicing fitness (ln)” value was -3.91 ± 0.27 (30 °C) and -3.5 ± 0.31 (37 °C).
For AUCUAGCAAUAUUACGCUCA the same measures were -0.577 ± 0.17 and -0.0187 ± 0.2.
With AUCUAGCAAUAUUACGCUUG, the “self-splicing fitness (ln)” value (30 °C) is -1.85 ± 0.12 and the “self-splicing fitness (ln)” value (37 °C) was -1.36 ± 0.14.
Regarding AUCUAGCAAUAUUACGGAGC, the “self-splicing fitness (ln)” value (30 °C) is -3.43 ± 0.19 and the “self-splicing fitness (ln)” value (37 °C) is -1.32 ± 0.14.
For AUCUAGCAAUAUUACGGAUC the same measures were -3.03 ± 0.17 and -2.33 ± 0.24.
For the sequence AUCUAGCAAUAUUACGGCAG, the “self-splicing fitness (ln)” value runs as follows: (30 °C) -2.04 ± 0.17; (37 °C) -0.157 ± 0.16.
In the same order, the values of AUCUAGCAAUAUUACGGUCU are -0.756 ± 0.078 and -0.908 ± 0.098.
In the same order, the values of AUCUAGCAAUAUUACGGUUU are -1.13 ± 0.13 and -0.53 ± 0.13.
In the same order, the values of AUCUAGCAAUAUUACGUAAU are -1.28 ± 0.098 and -1.37 ± 0.12.
Turning to AUCUAGCAAUAUUACGUAGG, the “self-splicing fitness (ln)” value is, setting by setting: (30 °C) -1.96 ± 0.14; (37 °C) -0.273 ± 0.21.
For AUCUAGCAAUAUUACGUAUA the same measures were -2.84 ± 0.33 and -1.91 ± 0.3.
For AUCUAGCAAUAUUACGUAUC the same measures were -3.29 ± 0.24 and -1.74 ± 0.39.
As for AUCUAGCAAUAUUACGUCGA, the “self-splicing fitness (ln)” value runs as follows: (30 °C) -1.39 ± 0.11; (37 °C) -0.769 ± 0.12.
In the case of AUCUAGCAAUAUUACGUGAC, the “self-splicing fitness (ln)” value is -3.35 ± 0.26 (30 °C) and -1.14 ± 0.2 (37 °C).
In the same order, the values of AUCUAGCAAUAUUACGUGAU are -1.16 ± 0.14 and -2.25 ± 0.32.
In the same order, the values of AUGAAGCAAUAUUACGAAAG are -1.77 ± 0.11 and -0.735 ± 0.16.
On to AUGAAGCAAUAUUACGAGUC, for which the “self-splicing fitness (ln)” value (37 °C) was -2.69 ± 0.24.
Consider AUGAAGCAAUAUUACGAGUU, for which the “self-splicing fitness (ln)” value is, setting by setting: (30 °C) -2.19 ± 0.096; (37 °C) -1.15 ± 0.1.
Take AUGAAGCAAUAUUACGAUAA: the “self-splicing fitness (ln)” value is -0.381 ± 0.077 (30 °C) and -0.287 ± 0.085 (37 °C).
For AUGAAGCAAUAUUACGAUGU, the “self-splicing fitness (ln)” value was 0.274 ± 0.092 (30 °C) and -0.284 ± 0.099 (37 °C).
For AUGAAGCAAUAUUACGCAAA the same measures were -2.25 ± 0.17 and -1.31 ± 0.17.
In the same order, the values of AUGAAGCAAUAUUACGCACG are -1.09 ± 0.1 and 0.541 ± 0.14.
In the same order, the values of AUGAAGCAAUAUUACGCCAC are -0.249 ± 0.39 and -1.9 ± 0.41.
Regarding AUGAAGCAAUAUUACGCCAG, the “self-splicing fitness (ln)” value (30 °C) was -0.726 ± 0.13 and the “self-splicing fitness (ln)” value (37 °C) came to 0.273 ± 0.18.
Take AUGAAGCAAUAUUACGCCCG: the “self-splicing fitness (ln)” value reads like this: (30 °C) -0.353 ± 0.25; (37 °C) -0.729 ± 0.38.
Take AUGAAGCAAUAUUACGCCUA: the “self-splicing fitness (ln)” value by setting is: (30 °C) 0.118 ± 0.087; (37 °C) -0.0119 ± 0.14.
For AUGAAGCAAUAUUACGCGGA the same measures were -0.591 ± 0.1 and -0.105 ± 0.12.
For AUGAAGCAAUAUUACGCUAC the same measures were -2.06 ± 0.094 and -1.86 ± 0.15.
Regarding AUGAAGCAAUAUUACGCUGU, the “self-splicing fitness (ln)” value was -2.02 ± 0.12 (30 °C) and -0.999 ± 0.13 (37 °C).
AUGAAGCAAUAUUACGGAGG: the “self-splicing fitness (ln)” value runs as follows: (30 °C) -2.82 ± 0.12; (37 °C) -0.72 ± 0.12.
In the same order, the values of AUGAAGCAAUAUUACGGGGC are -4.78 ± 0.26 and -2.48 ± 0.2.
For AUGAAGCAAUAUUACGUAAU the same measures were -1.57 ± 0.075 and -0.42 ± 0.094.
For AUGAAGCAAUAUUACGUAGA the same measures were -2.86 ± 0.18 and -1.84 ± 0.19.
Regarding AUGAAGCAAUAUUACGUAUU, the “self-splicing fitness (ln)” value runs as follows: (30 °C) -1.52 ± 0.081; (37 °C) -1.23 ± 0.099.
For the sequence AUGAAGCAAUAUUACGUCAA, the “self-splicing fitness (ln)” value was -0.911 ± 0.064 (30 °C) and -0.148 ± 0.076 (37 °C).
For AUGAAGCAAUAUUACGUGCC the same measures were -0.735 ± 0.12 and -0.196 ± 0.11.
For AUGAAGCAAUAUUACGUGCU the same measures were -1.69 ± 0.12 and -1.39 ± 0.12.
For AUGCAGCAAUAUUACGAGUC the same measures were -3.73 ± 0.25 and -2.32 ± 0.22.
Regarding AUGCAGCAAUAUUACGAUAU, the “self-splicing fitness (ln)” value runs as follows: (30 °C) -1.04 ± 0.054; (37 °C) 0.0687 ± 0.07.
For AUGCAGCAAUAUUACGAUCU the same measures were -0.511 ± 0.084 and 0.285 ± 0.13.
For AUGCAGCAAUAUUACGCCAU the same measures were -1.53 ± 0.18 and -2.28 ± 0.35.
In the same order, the values of AUGCAGCAAUAUUACGCCCU are -0.387 ± 0.22 and 0.0709 ± 0.25.
On to AUGCAGCAAUAUUACGCCGG, for which the “self-splicing fitness (ln)” value is -1.72 ± 0.15 (30 °C) and -0.877 ± 0.21 (37 °C).
As for AUGCAGCAAUAUUACGCCUA, the “self-splicing fitness (ln)” value was -0.128 ± 0.1 (30 °C) and -0.513 ± 0.12 (37 °C).
In the same order, the values of AUGCAGCAAUAUUACGCGAC are -2.18 ± 0.17 and -0.372 ± 0.17.
In the same order, the values of AUGCAGCAAUAUUACGCGAG are -3.82 ± 0.17 and -0.707 ± 0.11.
For the sequence AUGCAGCAAUAUUACGCGGG, the “self-splicing fitness (ln)” value runs as follows: (30 °C) -2.94 ± 0.17; (37 °C) -2.49 ± 0.17.
For AUGCAGCAAUAUUACGGAAU the same measures were -2.37 ± 0.088 and -0.752 ± 0.093.
In the same order, the values of AUGCAGCAAUAUUACGGCAG are -0.985 ± 0.11 and -1.29 ± 0.15.
In the same order, the values of AUGCAGCAAUAUUACGGCGC are -0.143 ± 0.17 and 0.107 ± 0.18.
Take AUGCAGCAAUAUUACGGCUC: the “self-splicing fitness (ln)” value by setting is: (30 °C) -0.408 ± 0.1; (37 °C) -0.0582 ± 0.13.
As to AUGCAGCAAUAUUACGGGAC, the “self-splicing fitness (ln)” value was -2.82 ± 0.17 (30 °C) and -2.74 ± 0.19 (37 °C).
For AUGCAGCAAUAUUACGGGAG, the “self-splicing fitness (ln)” value by setting is: (30 °C) -3.13 ± 0.17; (37 °C) -2.11 ± 0.13.
For AUGCAGCAAUAUUACGGGCU the same measures were -2.25 ± 0.078 and -1.07 ± 0.1.
For AUGCAGCAAUAUUACGGUGG the same measures were -3.96 ± 0.18 and -1.86 ± 0.12.
For AUGCAGCAAUAUUACGUAAA the same measures were -1.44 ± 0.092 and -1.14 ± 0.13.
Consider AUGCAGCAAUAUUACGUAAG, for which the “self-splicing fitness (ln)” value is -0.932 ± 0.062 (30 °C) and -0.743 ± 0.077 (37 °C).
As to AUGCAGCAAUAUUACGUAAU, the “self-splicing fitness (ln)” value is -0.641 ± 0.05 (30 °C) and -0.479 ± 0.066 (37 °C).
For the sequence AUGCAGCAAUAUUACGUCAC, for the setting “37 °C”, the “self-splicing fitness (ln)” value is -1.09 ± 0.16.
Consider AUGCAGCAAUAUUACGUGUA, for which the “self-splicing fitness (ln)” value (30 °C) was -2.34 ± 0.11 and the “self-splicing fitness (ln)” value (37 °C) is -0.835 ± 0.091.
On to AUGGAGCAAUAUUACGAAAA, for which, under “37 °C”, the “self-splicing fitness (ln)” value is -0.761 ± 0.38.
In the case of AUGGAGCAAUAUUACGAAAC, the “self-splicing fitness (ln)” value (30 °C) was -2.72 ± 0.4.
Same read-out and setting: with AUGGAGCAAUAUUACGAAAU the figure was -1.92 ± 0.23.

These data come from the supplement of paper PMC7877785.
